Test results from paper PMC3756911 (Nature, 2013).

B4: hnRNPA1-D262N (full-length) (natural protein)
chain: MSKSESPKEPEQLRKLFIGGLSFETTDESLRSHFEQWGTLTDCVVMRDPNTKRSRGFGFVTYATVEEVDAAMNARPHKVDGRVVEPKRAVSREDSQRPGAHLTVKKIFVGGIKEDTEEHHLRDYFEQYGKIEVIEIMTDRGSGKKRGFAFVTFDDHDSVDKIVIQKYHTVNGHNCEVRKALSKQEMASASSSQRGRSGSGNFGGGRGGGFGGNDNFGRGGNFSGRGGFGGSRGGGGYGGSGDGYNGFGNDGSNFGGGGSYNNFGNYNNQSSNFGPMKGGNFGGRSSGPYGGGGQYFAKPRNQGGYGGSSSSSSYGSGRRF

Key:
[1] = target: the molecule itself; assay: thioflavin-T fluorescence + electron microscopy
[2] = target: hnRNPA2 D290V (full-length) (human, UniProt P22626-2 1-341, D290V); assay: cross-seeded fibrillization, sedimentation analysis
[3] = target: hnRNPA1-D262V (full-length) (human, UniProt P09651-2 1-320, D262V); assay: as above
[4] = target: B4; assay: as above
[5] = target: the molecule itself; assay: seeded fibrillization, sedimentation analysis

B1: A2 D290V hexapeptide (NYNVFG) (peptide)
peptide: NYNVFG
B1: binds [1].

B2: hnRNPA2 wild-type (full-length) (natural protein)
chain: MEREKEQFRKLFIGGLSFETTEESLRNYYEQWGKLTDCVVMRDPASKRSRGFGFVTFSSMAEVDAAMAARPHSIDGRVVEPKRAVAREESGKPGAHVTVKKLFVGGIKEDTEEHHLRDYFEEYGKIDTIEIITDRQSGKKRGFGFVTFDDHDPVDKIVLQKYHTINGHNAEVRKALSRQEMQEVQSSRSGRGGNFGFGDSRGGGGNFGPGPGSNFRGGSDGYGSGRGFGDGYNGYGGGPGGGNFGGSPGYGGGRGGYGGGGPGYGNQGGGYGGGYDNYGGGNYGSGNYNDFGNYNQQPSNYGPMKSGNFGGSRNMGGPYGGGNYGPGGSGGSGGYGGRSRY
B2: binds [2].

B3: hnRNPA1 wild-type (full-length) (natural protein)
chain: MSKSESPKEPEQLRKLFIGGLSFETTDESLRSHFEQWGTLTDCVVMRDPNTKRSRGFGFVTYATVEEVDAAMNARPHKVDGRVVEPKRAVSREDSQRPGAHLTVKKIFVGGIKEDTEEHHLRDYFEQYGKIEVIEIMTDRGSGKKRGFAFVTFDDHDSVDKIVIQKYHTVNGHNCEVRKALSKQEMASASSSQRGRSGSGNFGGGRGGGFGGNDNFGRGGNFSGRGGFGGSRGGGGYGGSGDGYNGFGNDGSNFGGGGSYNDFGNYNNQSSNFGPMKGGNFGGRSSGPYGGGGQYFAKPRNQGGYGGSSSSSSYGSGRRF
B3: binds [3]; binds [4].

B4: binds [5].
